In patent US20120328590A1:

Biological target: actin (endogenous nuclear and cytoplasmic actin of Mel-Juso human melanoma cells) (human)
Test: cell-based or functional assay

Substance “DNase 1 construct C11 (signal peptide deleted, A114F actin-binding-site mutation, SV-40 NLS at the C-terminus) (from UniProt P24855 23-282) (enzyme)” has a TUNEL-positive (apoptotic) cells by laser scanning cytometry, mean of 11% and a cell survival in Colony Forming Assay (CFA), compared to Cat-GFP control of 23.2%.
“DNase 1 construct C13 (signal peptide deleted, A114F actin-binding-site mutation, SV-40 NLS at the N-terminus) (from UniProt P24855 23-282) (enzyme)” showed a TUNEL-positive (apoptotic) cells by laser scanning cytometry, mean of 5.4% and a cell survival in Colony Forming Assay (CFA), compared to Cat-GFP control of 32.4%.
